B1: Lysine-specific demethylase 2B, residues 656 to 722; numbered along this chain, Q8NHM5 (parent)
chain: LPHTAVCLVCGEAGKEDTVEEEEGKFNLMLMECSICNEIIHPGCLKIKESEGVVNDELPNCWECPKC
B2: Dystrobrevin alpha, residues 235 to 294; numbered along this chain, Q9Y4J8 (parent)
chain: ENVFHPVECSYCHSESMMGFRYRCQQCHNYQLCQDCFWRGHAGGSHSNQHQMKEYTSWKS

Variants of: B1
Assay: abundance fitness (aPCA) (normalised: wild type 0, dead -1); higher = more abundant; growth selection in yeast, the domain comes from the species named
Details: Homo sapiens

Abundance fitness of substitutions, site by site:
G52: R 0.067, P 0.171
F26: P -0.165
P42: W -0.32
K66: D -0.064
L28: G -0.076
G24: Y 0.154
V6: N -0.085
V19: H -0.24
N27: Y -0.179
K48: G -0.056
E49: K -0.123
L58: A -0.454
K25: H -0.31

Variants of: B2
Assay: as above
Details: Homo sapiens

Abundance fitness: each site, then its substitutions
S16: P -0.029, T 0.014, W -0.208, G -0.128, D 0.012, N -0.011, I 0.148, C -0.092, Y -0.304, M -0.041, F -0.084, A -0.049, H -0.206, Q 0.043, R 0.06, V 0.009, E -0.033, K 0.001, L 0.023
M18: R 0.111, L 0.09, Q 0.156, I -0.021, V 0.155, G 0.064, A 0.199, Y 0.075, D 0.129, T 0.075, W -0.266, H 0.163, E 0.103, C -0.189, P 0.116, N 0.101, K 0.029, F 0.126, S 0.133
V3: S 0.134, M 0.067, R 0.011, N 0.149, D 0.011, L 0.096, G -0.217, W -0.34, P 0.083, Y 0.018, A -0.075, E 0.053, Q 0.106, C 0.118, K 0.213, I -0.006, F -0.248
M17: V 0.004, D 0.059, G 0.085, C -0.055, Q -0.019, W -0.084, A -0.037, E 0.116, I 0.045, S 0.109, N 0.046, T 0.081, K 0.136, P -0.008, F -0.002, H 0.116, R 0.007, Y -0.183
Y11: N -0.256, I -0.191, F 0.039, T -0.201, Q -0.223, A -0.208, C -0.247, G -0.099, M -0.055, W -0.155, D -0.313, V -0.193, S -0.219, P -0.658, R -0.37
E15: M 0.074, Y -0.23, C -0.171, F -0.133, G -0.105, T 0.034, I 0.018, L -0.087, N 0.03, A -0.041, K -0.022, P 0.1, H 0.078, Q 0.079, W -0.104, R 0.054, D 0.195, S 0.03
E8: A -0.365, S -0.124, D -0.206, Q -0.155, I -0.104, L -0.233, T -0.234, G 0.051, F -0.13, H -0.049, Y -0.157, V -0.329, R -0.222, N -0.17, M -0.35, K -0.214, W -0.39, P -0.001
N2: D -0.599, L -0.158, K -0.007, T 0.049, V -0.129, W -0.285, R -0.109, E 0.032, A 0.066, Y -0.035, P -0.09, Q 0.019, F -0.121, H -0.394, M 0.092, C -0.33
E1: P -0.076, T -0.166, D 0.028, G -0.336, V -0.211, A -0.257, Y 0.014, C 0.297, M -0.377, K -0.248, R -0.462, S -0.183
C9: K -0.901, Y -1.26, G -0.93, P -0.969, A -1.12, E -0.908, S -1.01, M -1.31, Q -1.05, I -1.19, W -1.23, D -0.904, N -1.06, F -1.25, H -1.26, L -1.22, V -1.1
H13: D -0.474, A -0.107, F -0.243, K -0.027, Y -0.165, T -0.076, M -0.109, C -0.176, I -0.406, R -0.061, G -0.027, Q -0.172, L -0.176, E -0.23, N -0.169, P -0.677, V -0.457, S -0.096, W -0.584
V7: C 0.004, T -0.048, S 0, M -0.08, F -0.428, N 0.154, D -0.012, L -0.045, Y -0.161, A 0.063, P -0.009, R -0.036, K -0.086, E 0.012, W -0.072, I -0.023, H -0.055, G -0.085
H5: I 0.321, Q -0.195, N 0.259, K -0.028, E 0.145, R -0.176, P -0.102, F -0.201, A -0.195, W -0.143, C -0.024, G -0.127, M -0.114, L -0.125
S10: T -0.162, I -0.588, F -0.351, V -0.746, Q -0.453, G -0.443, P -0.421, N -0.183, R -0.476, E -0.394, L -0.693, K -0.592, Y -0.343, M -0.298, C -0.018
S14: Q -0.16, T -0.026, N -0.003, R 0.042, K -0.043, E -0.074, Y -0.324, F -0.622, M -0.149, C -0.086, H -0.081, W -0.416, V 0.088, P -0.679, D -0.13, L -0.153, A -0.051, G -0.11
C12: L -1.22, G -0.762, H -0.549, Q -1, N -0.746, V -1.1, S -1.17, E -0.997, F -1.23, P -1.29, M -1.11, D -0.939, T -0.868, W -1.27, I -1.1, A -0.883, R -0.768, K -0.943
P6: V -0.089, L -0.176, I -0.039, F -0.091, A 0.07, Q -0.191, M -0.071, N 0.049, R -0.029, G -0.063, W -0.127, E -0.045, D 0.079, Y -0.218, C -0.137
F4: I 0.19, G -0.014, D 0.108, N 0.037, V -0.01, T 0.06, S -0.14, Y 0.084, Q -0.152, W -0.224, C 0.009, P -0.107, R -0.081, H -0.059, M -0.043, A -0.049, L -0.039
G19: T -0.147, N -0.027, F -0.219, A 0.176, V -0.13, M -0.167, I -0.256, S 0.089, P 0.018, L -0.134, C -0.191, H 0.003, D -0.046, Q 0.046, K 0.129, E -0.103, Y -0.248

Reference: the Human Domainome abundance scans (Beltran et al. 2025)
